Measurements: publication PMC8795186, “Structural basis for safe and efficient energy conversion in a respiratory supercomplex” (Nature Communications, 2022)
Blank lines part the entries; values can stand above or below the molecule they belong to.

B2: QcrB, cytochrome b subunit of the cyt bcc complex (natural protein, Corynebacterium glutamicum, UniProt Q79VE9 1-539, looked up)
chain: MSLATVGNNLDSRYTMASGIRRQINKVFPTHWSFMLGEIALYSFIVLLLTGVYLTLFFDPSITKVIYDGGYLPLNGVEMSRAYATALDISFEVRGGLFIRQMHHWAALLFVVSMLVHMLRIFFTGAFRRPREANWIIGVVLIILGMAEGFMGYSLPDDLLSGVGLRIMSAIIVGLPIIGTWMHWLIFGGDFPSDLMLDRFYIAHVLIIPAILLGLIAAHLALVWYQKHTQFPGAGRTENNVIGIRIMPLFAVKAVAFGLIVFGFLALLAGVTTINAIWNLGPYNPSQVSAGSQPDVYMLWTDGAARVMPAWELYLGNYTIPAVFWVAVMLGILVVLLVTYPFIERKFTGDDAHHNLLQRPRDVPVRTSLGVMALVFYILLTVSGGNDVYAMQFHVSLNAMTWIGRIGLIVGPAIAYFITYRLCIGLQRSDREVLEHGIETGIIKQMPNGAFIEVHQPLGPVDDHGHPIPLPYAGAAVPKQMNQLGYAEVETRGGFFGPDPEDIRAKAKEIEHANHIEEANTLRALNEANIERDKNEGKN
notes: QcrB, cytochrome b subunit (haem bL, haem bH) of the cytochrome bcc complex, Corynebacterium glutamicum; has a 102 residue C-terminal extension; source: endogenous, purified from C. glutamicum membranes as part of the supercomplex (DDM, DEAE Sepharose, size exclusion)

How the values were obtained:
[1] = molecular target: T1, cyt bcc-aa3 (III2-IV2) supercomplex; QcrB sites (Corynebacterium glutamicum, UniProt Q79VE9); experiment: cryo-EM structure; absorption spectroscopy; assay type: binding; settings: co-purified endogenous pigment; narrow tunnel of QcrB near Qo site
T1 construct: native supercomplex purified from C. glutamicum membranes in DDM; dimer of 13-subunit protomers; with Cytochrome bc1 complex Rieske iron-sulfur subunit; Cytochrome bc1 complex cytochrome c subunit; Cytochrome c oxidase subunit 1; Cytochrome c oxidase subunit 2; Cytochrome c oxidase subunit 3; Cytochrome c oxidase polypeptide 4; Supercomplex subunit P29; Supercomplex subunit P20; Supercomplex subunit P12; Supercomplex subunit P8; Supercomplex subunit P6; ThiX
T1 sequence (Q79VE9 1-539): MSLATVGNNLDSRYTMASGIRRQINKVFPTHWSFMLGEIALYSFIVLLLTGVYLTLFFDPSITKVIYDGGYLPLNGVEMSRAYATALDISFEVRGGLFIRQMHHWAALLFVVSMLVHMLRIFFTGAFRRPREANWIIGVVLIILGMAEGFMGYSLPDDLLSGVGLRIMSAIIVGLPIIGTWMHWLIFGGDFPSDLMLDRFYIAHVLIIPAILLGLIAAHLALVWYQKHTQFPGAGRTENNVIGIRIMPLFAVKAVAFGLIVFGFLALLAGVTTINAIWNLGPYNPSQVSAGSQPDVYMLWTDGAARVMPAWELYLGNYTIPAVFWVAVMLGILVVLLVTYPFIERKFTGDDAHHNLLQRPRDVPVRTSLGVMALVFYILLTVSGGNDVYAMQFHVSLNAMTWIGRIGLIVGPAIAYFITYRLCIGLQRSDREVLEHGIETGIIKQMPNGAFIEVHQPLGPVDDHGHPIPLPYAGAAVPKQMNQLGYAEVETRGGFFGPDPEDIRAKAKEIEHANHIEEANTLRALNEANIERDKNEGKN

[2] = molecular target: T2, cyt bcc-aa3 (III2-IV2) supercomplex; quinone sites of the cyt bcc complex (QcrB/QcrA) (Corynebacterium glutamicum, UniProt Q79VE8+Q79VE9); experiment: cryo-EM structure, […] Å; assay type: binding; settings: 20 µM stigmatellin, 2.5 mM azide also present; Qo site, transition-state analogue; QcrB and His355 of QcrA
T2 construct: native supercomplex purified from C. glutamicum membranes in DDM; dimer of 13-subunit protomers; with Cytochrome bc1 complex cytochrome c subunit; Cytochrome c oxidase subunit 1; Cytochrome c oxidase subunit 2; Cytochrome c oxidase subunit 3; Cytochrome c oxidase polypeptide 4; Supercomplex subunit P29; Supercomplex subunit P20; Supercomplex subunit P12; Supercomplex subunit P8; Supercomplex subunit P6; ThiX
T2 sequence (Q79VE9 1-539): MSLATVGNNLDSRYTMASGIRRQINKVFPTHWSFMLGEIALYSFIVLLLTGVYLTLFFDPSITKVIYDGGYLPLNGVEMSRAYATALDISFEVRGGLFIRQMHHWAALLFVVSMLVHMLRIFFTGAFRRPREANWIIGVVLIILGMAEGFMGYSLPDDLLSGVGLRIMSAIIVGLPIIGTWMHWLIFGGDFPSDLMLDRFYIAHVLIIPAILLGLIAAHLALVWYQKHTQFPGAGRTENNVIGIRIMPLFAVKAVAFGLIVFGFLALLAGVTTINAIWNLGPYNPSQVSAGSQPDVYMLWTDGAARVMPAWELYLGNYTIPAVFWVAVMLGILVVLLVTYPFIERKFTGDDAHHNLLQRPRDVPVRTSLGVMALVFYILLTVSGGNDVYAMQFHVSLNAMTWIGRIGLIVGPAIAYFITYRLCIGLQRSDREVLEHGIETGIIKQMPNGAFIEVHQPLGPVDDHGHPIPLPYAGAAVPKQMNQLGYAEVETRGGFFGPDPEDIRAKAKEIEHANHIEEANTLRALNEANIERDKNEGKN
T2 sequence (Q79VE8 1-408): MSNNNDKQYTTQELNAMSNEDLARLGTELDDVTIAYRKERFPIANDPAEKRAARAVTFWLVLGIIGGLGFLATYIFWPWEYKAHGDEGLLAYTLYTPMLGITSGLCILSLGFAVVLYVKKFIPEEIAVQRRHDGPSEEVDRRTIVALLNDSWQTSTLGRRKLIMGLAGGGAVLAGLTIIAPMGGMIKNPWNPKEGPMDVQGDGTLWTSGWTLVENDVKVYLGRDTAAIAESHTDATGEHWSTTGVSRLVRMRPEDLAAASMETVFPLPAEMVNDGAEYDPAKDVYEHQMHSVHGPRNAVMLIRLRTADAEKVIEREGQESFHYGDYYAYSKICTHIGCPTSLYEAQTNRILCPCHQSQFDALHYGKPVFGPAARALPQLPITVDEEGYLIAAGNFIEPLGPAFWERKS

[3] = molecular target: B2; experiment: cryo-EM structure; supercomplex purified from C. glutamicum membranes in DDM, 10 mg/ml; with 20 µM stigmatellin and 2.5 mM sodium azide (2.8 Å) and as isolated (3.1 Å); settings: both partners purified
[4] = molecular target: the molecule itself; experiment: as above
[5] = molecular target: T3, CtaD, subunit of the cyt aa3 oxidase (haem a, haem a3, CuB) (Corynebacterium glutamicum, UniProt Q79VD7 1-584, His265 covalently bound to Tyr269); experiment: as above; settings: both partners purified
T3 construct: CtaD, catalytic subunit (haem a, haem a3, CuB) of the cytochrome aa3 oxidase, Corynebacterium glutamicum; source: endogenous, purified from C. glutamicum membranes as part of the supercomplex (DDM, DEAE Sepharose, size exclusion)
T3 sequence (looked up): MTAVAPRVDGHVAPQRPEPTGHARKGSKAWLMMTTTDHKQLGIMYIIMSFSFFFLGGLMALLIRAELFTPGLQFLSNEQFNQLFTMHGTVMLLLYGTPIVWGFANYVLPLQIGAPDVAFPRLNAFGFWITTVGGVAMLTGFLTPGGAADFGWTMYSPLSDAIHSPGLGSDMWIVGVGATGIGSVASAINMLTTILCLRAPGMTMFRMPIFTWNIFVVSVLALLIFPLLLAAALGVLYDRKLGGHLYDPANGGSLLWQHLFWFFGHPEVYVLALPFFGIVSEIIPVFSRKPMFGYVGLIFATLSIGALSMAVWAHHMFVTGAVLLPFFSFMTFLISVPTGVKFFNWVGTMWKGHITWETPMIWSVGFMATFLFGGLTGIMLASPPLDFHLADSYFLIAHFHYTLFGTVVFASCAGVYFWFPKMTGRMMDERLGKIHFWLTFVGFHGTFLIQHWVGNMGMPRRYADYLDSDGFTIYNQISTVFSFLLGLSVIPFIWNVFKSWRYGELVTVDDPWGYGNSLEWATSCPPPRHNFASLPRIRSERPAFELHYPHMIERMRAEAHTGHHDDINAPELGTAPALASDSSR

Molecule: CC(C)=CCC/C(C)=C/C=C/C(C)=C/C=C/C(C)=C/C=C/C=C(C)/C=C/C=C(C)/C=C/C=C(\C)CCC=C(C)C [lycopene]
cryo-EM structure; absorption spectroscopy [1]: a lycopene molecule is resolved in a narrow tunnel of QcrB

Molecule: C/C=C(C)/C=C/C=C/[C@H](OC)[C@@H](C)[C@@H](OC)[C@@H](C)CCc1oc2c(O)c(OC)cc(OC)c2c(=O)c1C [stigmatellin]
cryo-EM structure, 2.8 Å [2]: The cryo-EM map clearly resolves stigmatellin bound between FeS and haem bL

Molecule: B2
binding result [5]: binds

Continued, in another order:

binding result [3]: binds
B1: QcrA, Rieske-type iron-sulfur subunit of the cyt bcc complex (natural protein, Corynebacterium glutamicum, UniProt Q79VE8 1-408, looked up)
chain: MSNNNDKQYTTQELNAMSNEDLARLGTELDDVTIAYRKERFPIANDPAEKRAARAVTFWLVLGIIGGLGFLATYIFWPWEYKAHGDEGLLAYTLYTPMLGITSGLCILSLGFAVVLYVKKFIPEEIAVQRRHDGPSEEVDRRTIVALLNDSWQTSTLGRRKLIMGLAGGGAVLAGLTIIAPMGGMIKNPWNPKEGPMDVQGDGTLWTSGWTLVENDVKVYLGRDTAAIAESHTDATGEHWSTTGVSRLVRMRPEDLAAASMETVFPLPAEMVNDGAEYDPAKDVYEHQMHSVHGPRNAVMLIRLRTADAEKVIEREGQESFHYGDYYAYSKICTHIGCPTSLYEAQTNRILCPCHQSQFDALHYGKPVFGPAARALPQLPITVDEEGYLIAAGNFIEPLGPAFWERKS
notes: QcrA, Rieske-type iron-sulfur (2Fe-2S) subunit of the cytochrome bcc complex, Corynebacterium glutamicum; Carries the 2Fe-2S cluster (ligands His335, His355); QcrA crosses the dimer; also called QcrA´ (the copy of the second protomer); Rieske homologous subunit; source: endogenous, purified from C. glutamicum membranes as part of the supercomplex (DDM, DEAE Sepharose, size exclusion)
binding result [4]: binds

binding result [3]: binds
B3: CtaF, subunit of the cyt aa3 oxidase (natural protein, Corynebacterium glutamicum, UniProt Q8NNK3 1-143, looked up)
chain: MKSSAKLMYGPTVFMAAMAVIYIFATMHVSDGGSVKGVEWVGSVALVLSAGLTLMLGVYLHFTEVRVDVLPEDWEEAEVADKAGTLGFFSPSSIWPAAMSGAVGFLAFGVVYFHYWMIAVGLMLLIFTITKLNLQYGVPKEKH
notes: CtaF, subunit of the cytochrome aa3 oxidase, Corynebacterium glutamicum; source: endogenous, purified from C. glutamicum membranes as part of the supercomplex (DDM, DEAE Sepharose, size exclusion)

binding result [3]: binds
B4: CtaE, subunit of the cyt aa3 oxidase (natural protein, Corynebacterium glutamicum, UniProt Q9AEL8 1-205, looked up)
chain: MTSAVGNTGMAAPQRVAALNRPNMVSVGTIVFLSQELMFFAGLFAMYFVSRANGLANGSWGEQTDHLNVPYALLITVILVSSSVTCQFGVFAAERGDVYGLRKWFLVTIILGSIFVIGQGYEYITLVGHGLTIQSSVYGSAFFITTGFHALHVIAGVMAFVVVLMRIHKSKFTPAQATAAMVVSYYWHFVDVVWIGLFITIYFIQ
notes: CtaE, subunit of the cytochrome aa3 oxidase, Corynebacterium glutamicum; source: endogenous, purified from C. glutamicum membranes as part of the supercomplex (DDM, DEAE Sepharose, size exclusion)
